Source: paper PMC9814548, “Chemoenzymatic synthesis of 3-ethyl-2,5-dimethylpyrazine by L-threonine 3-dehydrogenase and 2-amino-3-ketobutyrate CoA ligase/L-threonine aldolase” (Communications Chemistry, 2021)

Legend:
CnKBL = biological target: T1, CnKBL (Cupriavidus necator, UniProt Q0K313); assay: X-ray crystal structure, […] Å; assay type: binding; conditions: covalent, Schiff base with K246
T1 construct: gene kbl; gene cloned in pET-28a (NcoI/XhoI), E. coli BL21(DE3), Ni-Sepharose and gel filtration; dimer; PLP on K246
T1 sequence (Q0K313 1-399): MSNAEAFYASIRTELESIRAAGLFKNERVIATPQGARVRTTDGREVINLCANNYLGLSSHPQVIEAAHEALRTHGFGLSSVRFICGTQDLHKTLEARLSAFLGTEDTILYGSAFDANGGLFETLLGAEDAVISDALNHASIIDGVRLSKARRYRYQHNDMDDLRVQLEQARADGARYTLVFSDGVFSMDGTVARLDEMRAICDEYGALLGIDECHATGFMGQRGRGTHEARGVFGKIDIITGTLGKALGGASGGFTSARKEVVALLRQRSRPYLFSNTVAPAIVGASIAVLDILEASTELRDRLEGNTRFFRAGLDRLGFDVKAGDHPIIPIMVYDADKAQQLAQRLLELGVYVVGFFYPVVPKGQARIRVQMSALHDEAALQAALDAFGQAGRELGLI

purified protein [1] = substrate: CCC(O)C(N)C(=O)O; assay: purified protein; assay type: biochemical, Cupriavidus necator; conditions: 50 mM potassium phosphate pH 8.0, 30 °C, no CoA
purified protein [2] = substrate: C[C@H](O)[C@H](N)C(=O)O; assay: purified protein; assay type: biochemical, Cupriavidus necator; conditions: 50 mM potassium phosphate pH 8.0, 30 °C, no CoA
purified protein [3] = substrate: NCC(=O)O; assay: purified protein; assay type: biochemical, Cupriavidus necator; conditions: 1 mM acetyl-CoA, 50 mM potassium phosphate pH 8.0, 30 °C
purified protein [4] = substrate: CC(=O)SCCNC(=O)CCNC(=O)[C@H](O)C(C)(C)COP(=O)(O)OP(=O)(O)OC[C@H]1O[C@@H](n2cnc3c(N)ncnc32)[C@H](O)[C@@H]1OP(=O)(O)O; assay: purified protein; assay type: biochemical, Cupriavidus necator; conditions: 100 mM Gly, 50 mM potassium phosphate pH 8.0, 30 °C
purified protein [5] = substrate: C[C@@H](O)[C@H](N)C(=O)O; assay: purified protein; assay type: biochemical, Cupriavidus necator; conditions: 50 mM potassium phosphate pH 8.0, 30 °C, no CoA

Q: With `Cc1ncc(COP(=O)(O)O)c(C=O)c1O` [PLP] as the molecule, how does the “X-ray crystal structure, 1.8 Å” value (CnKBL) read?
A: only PLP is coordinated at the site by forming a Schiff base with the side chain

B1: CnKBL (Cupriavidus necator H16) (protein)
chain: T1 sequence (Q0K313 1-399)
notes: gene cloned in pET-28a (NcoI/XhoI), E. coli BL21(DE3), Ni-Sepharose and gel filtration; dimer; PLP on K246
Q: Which Km (purified protein [1]) does the source give for B1 here?
A: 200 ± 56 µM

Q: And the kcat (purified protein [1])?
A: 0.00123 ± 7.17e-05 s⁻¹

Q: And the kcat/Km (purified protein [1])?
A: 6.17 M⁻¹ s⁻¹

Q: What about the Km (purified protein [2]) of the same molecule?
A: 420 ± 86 µM

Q: What about the kcat (purified protein [2]) of the same molecule?
A: 0.000778 ± 4.33e-05 s⁻¹

Q: And the kcat/Km (purified protein [2])?
A: 1.83 M⁻¹ s⁻¹

Q: And the Km (purified protein [3])?
A: 13900 ± 520 µM

Q: What about the kcat (purified protein [3]) of the same molecule?
A: 3.43 ± 0.036 s⁻¹

Q: What about the Km (purified protein [4]) of the same molecule?
A: 242.7 ± 10.4 µM

Q: What about the kcat (purified protein [4]) of the same molecule?
A: 3.43 ± 0.036 s⁻¹

Q: And the Km (purified protein [5])?
A: 1240 ± 110 µM

Q: What about the kcat (purified protein [5]) of the same molecule?
A: 0.00283 ± 0.0065 s⁻¹

Q: What about the kcat/Km (purified protein [5]) of the same molecule?
A: 2.33 M⁻¹ s⁻¹
